Source: the supplement of paper PMC10567573

B1: MMP1 (parent)
chain: FHGTRQYKFDPKTKRILTLQKANS

Variants of: B1
Experiment: protein stability index of a GFP-peptide fusion (GPS, HEK-293T) (PSI 1-6); higher = more stable
Conditions: c terminus: a fixed tail appended
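Further: lentivirally expressed fusions sorted by FACS into six bins by GFP to DsRed ratio, PSI derived from sequencing read proportions per bin multiplied by bin number.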

Protein stability index of substitutions, site by site:
Y7: C 1.97; D 2.38; E 2.5; F 1.75; G 1.77; H 2.18; I 1.94; K 2.55; L 2.57; M 1.72; N 2.46; P 2.08; Q 2.45; R 2.4; S 2.74; T 1.89; V 2.27; W 3.02
K8: A 2.04; C 2.73; D 2.07; E 2.21; F 2.76; G 2.24; H 1.76; I 2.49; L 1.64; M 2.63; N 2.71; P 1.71; Q 1.78; R 2.65; S 2.52; T 2.5; V 1.74; W 3.37; Y 2.22
F9: A 1.74; C 2.48; D 2.27; E 1.76; G 2.24; H 1.98; I 1.68; K 2.17; L 2.05; M 1.67; N 2.39; P 2.13; Q 1.6; R 2.39; S 2.08; T 1.55; V 1.58; W 2.27; Y 1.75
D10: A 1.88; C 1.49; E 1.7; F 2.45; G 2.15; H 1.95; I 2.14; K 1.83; L 1.5; M 2.18; N 1.22; P 1.72; Q 2.46; R 1.62; S 2.36; T 2.03; V 1.42; W 1.77; Y 2.01
P11: A 2.31; C 1.79; D 2.01; E 1.67; F 1.07; G 1.66; H 1.98; I 2.57; K 1.83; L 1.52; M 1.83; N 1.93; Q 2.29; R 1.88; S 1.78; T 2.43; V 1.8; W 2.19; Y 2.13
K12: A 1.87; C 1.86; D 1.53; E 2.4; F 2.27; G 1.47; H 2.21; I 1.95; L 1.91; M 1.7; N 2.12; P 2.26; Q 2.04; R 2.44; S 1.57; T 1.73; V 1.55; W 3.25; Y 3.08
T13: A 2.3; C 2.66; D 2.33; E 1.69; F 1.68; G 1.62; H 2.21; I 1.8; K 2; L 2.09; M 1.67; N 1.96; P 1.8; Q 2.37; R 1.85; S 1.99; V 1.6; W 2.07; Y 1.65
K14: A 2.68; C 2.18; D 2.19; E 1.85; F 1.98; G 1.54; H 1.54; I 1.92; L 1.99; M 2.16; N 2.14; P 2.1; Q 1.82; R 1.85; S 1.69; T 1.61; V 2.53; W 1.95; Y 1.36
R15: A 2.51; C 1.28; D 1.86; E 1.83; F 1.3; G 1.31; H 1.86; I 2.05; K 1.66; L 2.2; M 1.47; N 1.73; P 2.29; Q 2.16; S 1.91; T 1.83
